Bridge positions count the residues as written; N and C are the ends. Peptide text beside a SMILES is read from it.
T1: cJun bZIP (human, UniProt P05412 252-308, limits assumed)
T1 chain: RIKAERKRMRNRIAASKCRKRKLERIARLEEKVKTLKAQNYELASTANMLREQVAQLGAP

B1: HingeW variant peptide 9 (peptide)
peptide: Ac-LVVEEDVLEEEIEQLEERNYALRKEIEDLQKQLEDL-NH2
notes: Synthetic, NΔ24 CΔ3; also called linear form of 9/10
B2: HingeW peptide variant 22 (peptide)
peptide: Ac-EAEELVVEEDVLEEEIEQLEERNYALRKEIKDLQDQ-NH2
notes: Synthetic, NΔ20 CΔ7; also called linear form of 22/23
B3: HingeW peptide variant 24 (HW30) (peptide)
peptide: Ac-EAEELVVEEKVLEDEIEQLEERNYALRKEIKDLQDQ-NH2
modifications: lactam 10-14, 31-35
SMILES: CC[C@H](C)[C@H](NC(=O)[C@H](CCC(=O)O)NC(=O)[C@H](CCCCN)NC(=O)[C@H](CCCNC(=N)N)NC(=O)[C@H](CC(C)C)NC(=O)[C@H](C)NC(=O)[C@H](Cc1ccc(O)cc1)NC(=O)[C@H](CC(N)=O)NC(=O)[C@H](CCCNC(=N)N)NC(=O)[C@H](CCC(=O)O)NC(=O)[C@H](CCC(=O)O)NC(=O)[C@H](CC(C)C)NC(=O)[C@H](CCC(N)=O)NC(=O)[C@H](CCC(=O)O)NC(=O)[C@@H](NC(=O)[C@H](CCC(=O)O)NC(=O)[C@@H]1CC(=O)NCCCC[C@H](NC(=O)[C@H](CCC(=O)O)NC(=O)[C@H](CCC(=O)O)NC(=O)[C@@H](NC(=O)[C@@H](NC(=O)[C@H](CC(C)C)NC(=O)[C@H](CCC(=O)O)NC(=O)[C@H](CCC(=O)O)NC(=O)[C@H](C)NC(=O)[C@H](CCC(=O)O)NC(C)=O)C(C)C)C(C)C)C(=O)N[C@@H](C(C)C)C(=O)N[C@@H](CC(C)C)C(=O)N[C@@H](CCC(=O)O)C(=O)N1)[C@@H](C)CC)C(=O)N[C@H]1CCCCNC(=O)C[C@@H](C(=O)N[C@@H](CCC(N)=O)C(N)=O)NC(=O)[C@H](CCC(N)=O)NC(=O)[C@H](CC(C)C)NC(=O)[C@H](CC(=O)O)NC1=O
notes: Synthetic, NΔ20 CΔ7; also called double lactamised peptide
B4: HingeW variant peptide 14 (peptide)
peptide: Ac-EAKELVDEEDVLEEEIEQLEERNYALRKEIEDLQKQ-NH2
notes: Synthetic, NΔ20 CΔ7; also called linear form of 14/15
B5: HingeW variant peptide 16 (peptide)
peptide: Ac-EAEELVVEEKVLEDEIEQLEERNYALRKEIEDLQKQ-NH2
notes: Synthetic, NΔ20 CΔ7; also called linear form of 16/17
B6: HingeW variant peptide 18 (peptide)
peptide: Ac-EAEELVVEEDVLEEEIKQLEDRNYALRKEIEDLQKQ-NH2
notes: Synthetic, NΔ20 CΔ7; also called linear form of 18/19
B7: HingeW variant peptide 19 (peptide)
peptide: Ac-EAEELVVEEDVLEEEIKQLEDRNYALRKEIEDLQKQ-NH2
modifications: lactam 17-21
SMILES: CC[C@H](C)[C@H](NC(=O)[C@H](CCC(=O)O)NC(=O)[C@H](CCCCN)NC(=O)[C@H](CCCNC(=N)N)NC(=O)[C@H](CC(C)C)NC(=O)[C@H](C)NC(=O)[C@H](Cc1ccc(O)cc1)NC(=O)[C@H](CC(N)=O)NC(=O)[C@H](CCCNC(=N)N)NC(=O)[C@@H]1CC(=O)NCCCC[C@H](NC(=O)[C@@H](NC(=O)[C@H](CCC(=O)O)NC(=O)[C@H](CCC(=O)O)NC(=O)[C@H](CCC(=O)O)NC(=O)[C@H](CC(C)C)NC(=O)[C@@H](NC(=O)[C@H](CC(=O)O)NC(=O)[C@H](CCC(=O)O)NC(=O)[C@H](CCC(=O)O)NC(=O)[C@@H](NC(=O)[C@@H](NC(=O)[C@H](CC(C)C)NC(=O)[C@H](CCC(=O)O)NC(=O)[C@H](CCC(=O)O)NC(=O)[C@H](C)NC(=O)[C@H](CCC(=O)O)NC(C)=O)C(C)C)C(C)C)C(C)C)[C@@H](C)CC)C(=O)N[C@@H](CCC(N)=O)C(=O)N[C@@H](CC(C)C)C(=O)N[C@@H](CCC(=O)O)C(=O)N1)C(=O)N[C@@H](CCC(=O)O)C(=O)N[C@@H](CC(=O)O)C(=O)N[C@@H](CC(C)C)C(=O)N[C@@H](CCC(N)=O)C(=O)N[C@@H](CCCCN)C(=O)N[C@@H](CCC(N)=O)C(N)=O
notes: Synthetic, NΔ20 CΔ7; also called cyclised form of 18/19
B8: HingeW variant peptide 12 (peptide)
peptide: Ac-KEAEDLVVEEDVLEEEIEQLEERNYALRKEIKDLQDQ-NH2
notes: Synthetic, NΔ19 CΔ7; also called linear form of 12/13
B9: HingeW variant peptide 20 (peptide)
peptide: Ac-EAEELVVEEDVLEEEIEQLEEKNKALKDEIEDLQKQY-NH2
notes: Synthetic, NΔ20 CΔ7; also called linear form of 20/21
B10: HingeW variant peptide 21 (peptide)
peptide: Ac-EAEELVVEEDVLEEEIEQLEEKNKALKDEIEDLQKQY-NH2
modifications: lactam 24-28 (inferred)
notes: Synthetic, NΔ20 CΔ7; also called cyclised form of 20/21
B11: HingeW variant peptide 28 (peptide)
peptide: Ac-EAEELVVEEDVLEEEIEQLEERNYALRKEIEDLQ-NH2
notes: Synthetic, NΔ20 CΔ9; also called linear form of 28/29

Assays:
cJun bZIP [1] = target: cJun bZIP (Homo sapiens, UniProt P05412, S292Y); assay: CD spectra and thermal denaturation of peptide/cJun heterodimers; conditions: peptide (5 μM)/c-Jun (5 μM) heterodimer; Table 6
cJun bZIP [2] = target: T1, cJun bZIP; assay: cell-based or functional assay
cJun bZIP [3] = target: T1, cJun bZIP; assay: CD thermal denaturation, peptide 5 µM and c-Jun 5 µM
cJun bZIP [4] = target: T1, cJun bZIP; assay: ITC (PEAQ-ITC), peptide injected into cJun, one site model

Row | Molecule | Tm (° C.) (cJun bZIP [1]) [°C] | IC50 CD (cJun bZIP [2]) [µM] | Tm (° C.) of peptide-c-Jun heterodimer (cJun bZIP [3]) [° C.] | further results
1 | Ac-EAEELVVEEKVLEDEIEQLEERNYALRKEIEDLQKQ-NH2 [Peptide 16] | 54.9 ± 1.2 | – | – | –
2 | CC[C@H](C)[C@H](NC(=O)[C@H](CCC(=O)O)NC(=O)[C@H](CCCCN)NC(=O)[C@H](CCCNC(=N)N)NC(=O)[C@H](CC(C)C)NC(=O)[C@H](C)NC(=O)[C@H](Cc1ccc(O)cc1)NC(=O)[C@H](CC(N)=O)NC(=O)[C@H](CCCNC(=N)N)NC(=O)[C@@H]1CC(=O)NCCCC[C@H](NC(=O)[C@@H](NC(=O)[C@H](CCC(=O)O)NC(=O)[C@H](CCC(=O)O)NC(=O)[C@H](CCC(=O)O)NC(=O)[C@H](CC(C)C)NC(=O)[C@@H](NC(=O)[C@H](CC(=O)O)NC(=O)[C@H](CCC(=O)O)NC(=O)[C@H](CCC(=O)O)NC(=O)[C@@H](NC(=O)[C@@H](NC(=O)[C@H](CC(C)C)NC(=O)[C@H](CCC(=O)O)NC(=O)[C@H](CCC(=O)O)NC(=O)[C@H](C)NC(=O)[C@H](CCC(=O)O)NC(C)=O)C(C)C)C(C)C)C(C)C)[C@@H](C)CC)C(=O)N[C@@H](CCC(N)=O)C(=O)N[C@@H](CC(C)C)C(=O)N[C@@H](CCC(=O)O)C(=O)N1)C(=O)N[C@@H](CCC(=O)O)C(=O)N[C@@H](CC(=O)O)C(=O)N[C@@H](CC(C)C)C(=O)N[C@@H](CCC(N)=O)C(=O)N[C@@H](CCCCN)C(=O)N[C@@H](CCC(N)=O)C(N)=O [Peptide 19] (Ac-EAEELVVEEDVLEEEIKQLEDRNYALRKEIEDLQKQ-NH2; lactam 17-21 (inferred)) | 60.9 ± 3.6 | – | – | –
3 | Ac-EAEELVVEEDVLEEEIEQLEERNYALRKEIEDLQ-NH2 [Peptide 28] | 53.8 ± 5.3 | – | – | –
4 | CC[C@H](C)[C@H](NC(=O)[C@H](CCC(=O)O)NC(=O)[C@@H]1CC(=O)NCCCC[C@H](NC(=O)[C@H](CC(N)=O)NC(=O)[C@H](CCCCN)NC(=O)[C@H](CCC(=O)O)NC(=O)[C@H](CCC(=O)O)NC(=O)[C@H](CC(C)C)NC(=O)[C@H](CCC(N)=O)NC(=O)[C@H](CCC(=O)O)NC(=O)[C@@H](NC(=O)[C@H](CCC(=O)O)NC(=O)[C@H](CCC(=O)O)NC(=O)[C@H](CCC(=O)O)NC(=O)[C@H](CC(C)C)NC(=O)[C@@H](NC(=O)[C@H](CC(=O)O)NC(=O)[C@H](CCC(=O)O)NC(=O)[C@H](CCC(=O)O)NC(=O)[C@@H](NC(=O)[C@@H](NC(=O)[C@H](CC(C)C)NC(=O)[C@H](CCC(=O)O)NC(=O)[C@H](CCC(=O)O)NC(=O)[C@H](C)NC(=O)[C@H](CCC(=O)O)NC(C)=O)C(C)C)C(C)C)C(C)C)[C@@H](C)CC)C(=O)N[C@@H](C)C(=O)N[C@@H](CC(C)C)C(=O)N[C@@H](CCCCN)C(=O)N1)C(=O)N[C@@H](CCC(=O)O)C(=O)N[C@@H](CC(=O)O)C(=O)N[C@@H](CC(C)C)C(=O)N[C@@H](CCC(N)=O)C(=O)N[C@@H](CCCCN)C(=O)N[C@@H](CCC(N)=O)C(=O)N[C@@H](Cc1ccc(O)cc1)C(N)=O [Peptide 21] (Ac-EAEELVVEEDVLEEEIEQLEEKNKALKDEIEDLQKQY-NH2; lactam 24-28) | 58.9 ± 1.0 | – | – | –
5 | Ac-EDVLEEEIEQLEERNYALRKEIEDLQKQLEKLY-NH2 [Peptide 7] | 64.3 ± 1.3 | – | – | –
6 | Ac-EAEELVVEEDVLEEEIEQLEERNYALRKEIKDLQDQ-NH2 [Peptide 22] | 55.6 ± 1.2 | – | – | –
7 | Ac-EAEELVVEEDVLEEEIEQLEEKNKALKDEIEDLQKQY-NH2 [Peptide 20] | 56.2 ± 1.3 | – | – | –
8 | Ac-KEAEDLVVEEDVLEEEIEQLEERNYALRKEIKDLQDQ-NH2 [Peptide 12] | 56.5 ± 1.6 | – | – | –
9 | Ac-EAKELVDEEDVLEEEIEQLEERNYALRKEIEDLQKQ-NH2 [Peptide 14] | 57.5 ± 1.1 | – | – | –
10 | Ac-EAEELVVEEDVLEEEIKQLEDRNYALRKEIEDLQKQ-NH2 [Peptide 18] | 55.5 ± 1.7 | – | – | –
11 | Ac-LVVEEDVLEEEIEQLEERNYALRKEIEDLQKQLEDL-NH2 [Peptide 9] | 62.1 ± 1.4 | – | – | –
12 | Ac-EAEELVVEEDVLEEEIEQLEERNYALRKEIEDLQKQLEKL-NH2 (Synthetic, NΔ20 CΔ3) [HingeW variant peptide 4] | – | 45.4 | 64.1 | -TΔS (cJun bZIP [4]): 150 kJ/mol; Kd (cJun bZIP [4]): 91.1 nM; Stoichiometry, n (cJun bZIP [4]): 0.91; ΔG (cJun bZIP [4]): -40.5 kJ/mol; ΔH (cJun bZIP [4]): -190 kJ/mol
13 | B1 | – | 94.6 | 62.1 | –
14 | Ac-LVVEEDVLEEEIEQLEEKNKALKDEIEDLQKQLEKLY-NH2 (also: table prints a different, shorter sequence for 7/8, also called linear form of 7/8) [HingeW variant peptide 7] | – | 83.9 | 64.3 | –
15 | B2 | – | 101 | 55.6 | –
16 | B3 | – | 44.9 | 63.2 | -TΔS (cJun bZIP [4]): 82 kJ/mol; Kd (cJun bZIP [4]): 9.69 nM; Stoichiometry, n (cJun bZIP [4]): 1.05; ΔG (cJun bZIP [4]): -45.8 kJ/mol; ΔH (cJun bZIP [4]): -128 kJ/mol
17 | B4 | – | 100 | 57.5 | –
18 | B5 | – | 114 | 54.9 | –
19 | B6 | – | 98.9 | 55.5 | –
20 | B7 | – | 94.4 | 60.9 | –
21 | B8 | – | 115 | 56.5 | –
22 | B9 | – | 121 | 56.2 | –
23 | B10 | – | 94.1 | 58.9 | –
24 | Ac-EAEELVVEEDVLEEEIEQLEEKNKALKDEIEDLY-NH2 [HingeW variant peptide 26] | – | 1560 | – | –
25 | B11 | – | 725 | 53.8 | –

Reference: patent publication US20250188151A1, “C-JUN ANTAGONIST PEPTIDES” (The University of Bath, priority 2022, published 2025)
